Data published in the DeepSol protein solubility set.

Experiment: soluble on expression in E. coli; label from the status in PepcDB or PDB records

Sequence	soluble on expression in E. coli
MGSDKIHHHHHHMKAYAFGFPKIGEKREFKKALEDFWKGKITEEQFEEEMNKLRMYMVENYRKNVDVIPSNELSYYDFVLDTAVMVGAVPERFGEYRGLSTYFDMARGGKALEMTKFFNTNYHYLVPEIETEEFYLLENKPLEDYLFFKSKGIETAPWVIGPFTFLYLSKRNGEWIRRPNQMEKLLESLVSVYKEVFEKLVENGCKEILVNEPAFVCDLEKAHWDLILNVYRELSEFPLTVFTYYDSVSDYEACVSLPVKRLHFDFVSNEENLKNLEKHGFPEDKKLVAGVINGRQPWKVDLRKVASLVEKLGASAISNSCPLFHLPVTLELENNLPGGLKEKLAFAKEKLEELKMLKDFLEGKTFDLPNVSFEDFAVDLQAVERVRNLPEDSFRREKEYTERDRIQRERLNLPLFPTTTIGSFPQTPEVRKMRSKYRKGEISKEEYEAFIKEQIKKAIELQEEIGLDVLVHGEFERTDMVEFFAEKLNGIATTQNGWVLSYGSRCYRPPIIYGTVTRPEPMTLKEITYAQSLTEKPVKGMLTGPVTIMSWSYYREDIPEREIAYQIALAINEEVKDLEEAGIKIVQIDEPAFREKAPIKKSKWPEYFEWAINAFNLAANARPETQIHAHMCYSDFNEIIEYIHQLEFDVISIEASRSKGEIISAFENFKGWIKQIGVGVWDIHSPAVPSINEMREIVERVLRVLPKELIWINPDCGLKTRNWDEVIPSLRNMVALAKEMREKFES	not soluble
QVQLVESGGGSVQAGGSLRLSCTASGYTIGPYCMGWFRQAPGGEREAVAAINMGGGITYYADSVKGRFTISRDNAKNTVTLQMNSLKPEDTAMYYCAADSTIYASYYECGHGLSTGGYGYDSWGQGTQVTVSSRGRHHHHHH	soluble
MGKVTGFLEIERHDRVYAPVTDRVKNYNEFVVPLSEKDLRDQAARCMNCGIPYCHGTGSAQPGATGCPVNNQIPDWNDLVYNGYWQEAARTLHSTNNFPEFTGRICPAPCEASCTLNIDDNPVTIKTIECAIVDTAFDNGWVTPEIAAVKTGQSVAVVGAGPAGLACAQQLARAGHDVHVYEKFAKAGGLLRYGIPDFKMEKTLIDRRVAQMEAEGVTFHYGAPVGGSAPGAVDPAELLKQYDAVALTGGAEAPRDLPIPGRELGGIHFAMDFLTQQNRRVSGEAVNGTDILAAGKNVVVIGGGDTGSDCIGTSIRQGAKSVTQIEIMPAPPERENKALTWPNWPMKMRTSSSQAEGAAREFAVMTQSFEGEGGVVKKLNCVRVDAKFQPIPGTEFTLEADLVLLAMGFVSPVKEGLLTQLGVALDPRGNVAADLSHFTTSVDKVFAAGDMRRGQSLVVWAIREGRLCAQAIDRFLMGATTLPRLEHHHHHH	not soluble
MVQHSDEKGGAMTTLAIDIGGTKLAAALIGADGQIRDRRELPTPASQTPEALRDALSALVSPLQAHAQRVAIASTGIIRDGSLLALNPHNLGGLLHFPLVKTLGQLTDLPTIAINDAQAAAWAEYQALEGDITDMVFITVSTGVGGGVVSGGKLLTGPGGLAGHIGHTLADPHGPVCGCGRTGCVEAIASGRGIAAAAQGELAGADAKTIFMRAGQGDEQAQQLIHRSAHVLARLIADIKATTDCQCVVVGGSVGLAEGYLALVETYLAQEPAAFHVDLLAAHYRHDAGLLGAALLAQGEKL	soluble
MGSDKIHHHHHHMPKRPVRKPGVFARLEDLYTRMETAYNATAAAAGLTCTGCDDNCCRTHFRHHTRIEWAYLWKGMLSLSPERREAYLERAKDVVAQCDAALAAGVVPRVMCPLNDEGRCGLYKYRLMICRMHGTRNILRLPDGRTQVFRGCHRFDNCTAQFADADRPSLDRTPLYTELAKLEMEHLGPTAARQQRVDLTLAEMLVYGPPKP	not soluble
MSLTDEQFNPQDEEIEIEAIGVEVSCQPIELYKVLKIANAVSGGGEAKHVISEGYVFVNGDVETRKRCKVFDGDLIEFNQEFYLVICDAPVTEPESFDTQPELASSHKPTKTQKKSSANTSAKSKPSKNNKTVSGQKKAKNDKKSPQSDSKSPSGRSAIRFFEGGSHHHHHH	soluble
MSDSPKNAPRITDEADVVLIGAGIMSSTLGAMLRQLEPSWTQIVFERLDGPAQESSSPWNNAGTGHSALCELNYTPEVKGKVEIAKAVGINEKFQVSRQFWSHLVEEGVLSDPKEFINPVPHVSFGQGADQVAYIKARYEALKDHPLFQGMTYADDEATFTEKLPLMAKGRDFSDPVAISWIDEGTDINYGAQTKQYLDAAEVEGTEIRYGHEVKSIKADGAKWIVTVKNVHTGDTKTIKANFVFVGAGGYALDLLRSAGIPQVKGFAGFPVSGLWLRCTNEELIEQHAAKVYGKASVGAPPMSVPHLDTRVIEGEKGLLFGPYGGWTPKFLKEGSYLDLFKSIRPDNIPSYLGVAAQEFDLTKYLVTEVLKDQDKRMDALREYMPEAQNGDWETIVAGQRVQVIKPAGFPKFGSLEFGTTLINNSEGTIAGLLGASPGASIAPSAMIELLERCFGDRMIEWGDKLKDMIPSYGKKLASEPALFEQQWARTQKTLKLEEALEHHHHHH	not soluble
MIGSYALSILDEAEVLVDLLTGGAPKVNKIFLITSSRRKRPDYYGELESCLKEMDLNLEIITVDDVSNFFEVYLILEKICELEGTPKWVNVGSGHGIMLSALAVHAFIKDALLVAFDKEEKKVIVTDIKKLKRIKIYQKRYFELISELGEGEKTITELSKIFNLSRSAMSRRLKHMETLNIVVRKGTGRSNIPYVFKLTELGRKLL	soluble
MSLSTSPKPSPIPSPVLGQKPNASQSLLAWCREVTKNYRGVKITNFTTSWRNGLSFCAILHHFRPDLIDYKSLNPQDIKENNKKAYDGFASIGISRLLEPSDMVLLAIPDKLTVMTYLYQIRAHFSGQELNVVQIEENSSKSTYKVGNYETDTNSSVDQEKFYAELSDLKREGHHHHHH	soluble
MGSDKIHHHHHHMEKQVATSIFESLSSGLRLDVFRLLVKKGPDGMVAGEIANALDVPPANLSFHLKALSQARLVTVEQEGRFQRYRADIPLMLDLIAYLTDECCTGSPAKCVEKVAASNCAKELLPPPVTHSNESDNMNILFLCTGNSCRSILAEAVFNHLAPTGWKAMSAGSQPTGTVHPRSLALLAREGIDTNGLHSKSWDNLPQVPDVVITVCSNAAGETCPAYLGAVLRAHWGVDDPAHATGTEAEIEAAFTAAYRILRRRIEAFLALPLVELARDRTRLKAELDRIGALSA	not soluble
MAELSDQEMLRYNRQIILRGFDFEGQEALKDARVLVVGLGGLGCAATQYLAGAGVGQLTLLDFDTVSVSNLQRQTLHSDATVGQPKVESARDALARINPHITITPVNARLDDDAMTSLIAGHSLVLDCTDNVSVRNQLNAGCYTAKVPLISGAAIRMEGQVTVFTYRENEPCYRCLSRLFGENALTCVEAGVMAPLIGVIGSLQAMEAIKLLAHYGQPASGKIVMYDAMTCQFREMKLMRNPGCEVCGQ	not soluble
MYDLLVIGAGPGGYVAAIRAAQLGMKVGVVEKEKALGGTCLRVGCIPSKALLETTERIYEAKKGLLGAKVKGVELDLPALMAHKDKVVQANTQGVEFLFKKNGIARHQGTARFLSERKVLVEETGEELEARYILIATGSAPLIPPWAQVDYERVVTSTEALSFPEVPKRLIVVGGGVIGLELGVVWHRLGAEVIVLEYMDRILPTMDLEVSRAAERVFKKQGLTIRTGVRVTAVVPEAKGARVELEGARSWKTDRVLVAVGRRPYTEGLSLENAGLSTDERGRIPVDEHLRTRVPHIYAIGDVVRGPMLAHKASEEGIAAVEHMVRGFGHVDYQAIPSVVYTHPEIAAVGYTEEELKAQGIPYKVGKFPYSASGRARAMGETEGFIKVLAHAKTDRILGVHGIGARVGDVLAEAALALFFKASAEDLGRAPHAHPSLSEILKEAALAAWERPIHL	soluble
MSLRKNPYRLSDEIFGISFRTADRIAKSLGIDPYSKYRISSGIKYVLSRAATEGHTFLEEEMLKSYTSKLLDINIDSIEDALVSLVLNKSVYVDRNDGMSKIYLSSFYHAELGVCRKLVELSQVRYSADMEDFEERIKQVQKKEGIILADKQKEAIREAMTNGVLVITGGPGTGKTTIIKSIISLLESEGYEFALAAPTGRAAKRMSEATGYEAKTIHRLLEIGYTSNEDELVFMRTEDNPIEADVVIIDEMSMVDIILMYHLLKAIVCGTRLILVGDVDQLPSVGPGNVLRDIIKSGMIKTVKLSEIFRQAGESMIVVNAHRINRGEHPILNEREKDFFFVTRNSQNDILKTVVDLCTRRIPDTYGYDPMKQIQVLSPMRKGTVGVANLNIELQKVLNPEDGKEGHHHHHH	soluble
MSLPNNEKITRLQQQEKNTQQTVTVAKNKAANLAKFQKEVEATTLDFETQAALLPKEKEIPKLLKDISALGSNTGLDFISFKPLANRPKDFYAEIPISIQVRGPYHNVGSFFDQINKLERIVSVKSVKMTSPKKEDGEMLLTSNCQLVTYQFTNIELPKEGHHHHHH	soluble
MSLDATYVETSTSKLGCRSAVADQVEKFQFGQYECDAPHKLYNSLIDNAKKFIESPDFILLGGDLIAHGLNVTKQMLIDNFNNITNPIEKKYPNTKIYITLGNNDFQKNYGSFDTDLTDFETVFEIFGKWMNTEQAETFKKGGYYYADFPSSNFRFLFLNTVIYSRKRTFNETLTDPYDQFAWIRKMYKDAVQKGYKVGIALHIPPGVVYTDNKVGWNLKYINTFAEIMKECDFSFIISGHSHTDMILPLYTPNSDTDNILYSLSAPSVSPTHYNNPGFRHYLLDQEIIKDFIQYYADIMLNPSELNWEIEYKFSEAYKTQNITRNSINDAVKWIRSTGEGQWRYRERVYSREGHHHHHH	soluble
SADKEKKKKESILDLSKYIDKTIRVKFQGGREASGILKGFDPLLNLVLDGTIEYMRDPDDQYKLTEDTRQLGLVVCRGTSVVLICPQDGMEAIPNPFIQQQDA	soluble
GDQRFDVLITGGTLVDVVTGELRPADIGIVGALIASVHEPASRRDAAQVIDAGGAYVSPGLIDTHMHIESSMITPAAYAAAVVARGVTTIVWDPHEFGNVHGVDGVRWAAKAIENLPLRAILLAPSCVPSAPGLERGGADFDAAILADLLSWPEIGGIAEIMNMRGVIERDPRMSGIVQAGLAAEKLVCGHARGLKNADLNAFMAAGVSSDHELVSGEDLMAKLRAGLTIELRGSHDHLLPEFVAALNTLGHLPQTVTLCTDDVFPDDLLQGGGLDDVVRRLVRYGLKPEWALRAATLNAAQRLGRSDLGLIAAGRRADIVVFEDLNGFSARHVLASGRAVAEGGRMLVDIPTCDTTVLKGSMKLPLRMANDFLVKSQGAKVRLATIDRPRFTQWGETEADVKDGFVVPPEGATMISVTHRHGMAEPTTKTGFLTGWGRWNGAFATTVSHDSHNLTVFGGNAGDMALAANAVIGTGGGMAVASEGKVTAILPLPLSGLVSDAPLEEVARAFEDLREAVGKVVEWQPPYLVFKACFGATLACNIGPHQTDMGIADVLTGKVMESPVIEV	not soluble
AIAGSVNSRGHKAEAQVVMMGLDSAGKTTLLYKLKGHQLVETLPTVGFNVEPLKAPGHVSLTLWDVGGQAPLRASWKDYLEGTDILVYVLDSTDEARLPESAAELTEVLNDPNMAGVPFLVLANKQEAPDALPLLKIRNRLSLERFQDHCWELRGCSALTGEGLPEALQSLWSLLKSRSCMCLQARAHGAERGDSKRS	soluble
MNGTGNTILVTGGTSGIGLGLALRLHKAGNKVIIAGRRKALLDKIVSEHPGIESVVLDVTDPHSIQHSSEALAISHPNLNVLINNAGIMHWEDLTDAKYLSTAENIVTTNLLGTIRMVYAFTPNLLKQPSATIVNVSSALAFVPLPATPTYSATKAAVHSFTQSLRVQLADSPVEVIELAPPGVRTTLLGQENDEHAMPLEAFLDEIFKLLDISPTPQELVVERAKPLRFAEANGSHGEVLKMLAGYKPPAE	not soluble
